± gives the uncertainty stated by the source.
Assay: abundance fitness (aPCA) (normalised: wild type 0, dead -1); higher = more abundant; growth selection in yeast, the domain comes from the species named
Conditions: Homo sapiens
With “Transcriptional activator Myb I169H, P10242” the abundance fitness was -0.799 ± 0.22. For “Transcriptional activator Myb E151F, P10242”, the abundance fitness was -0.927 ± 0.19. In the case of “Transcriptional activator Myb I181T, P10242”, the abundance fitness is reported as -0.278 ± 0.094. “Transcriptional activator Myb K171H, P10242” showed an abundance fitness of -0.207 ± 0.28. With “Transcriptional activator Myb T148L, P10242” the abundance fitness was -0.505 ± 0.036. Substance “Transcriptional activator Myb Y156F, P10242” has an abundance fitness of 0.091 ± 0.11. In the case of “Transcriptional activator Myb I169R, P10242”, the abundance fitness is reported as -0.784 ± 0.071. Work on “Transcriptional activator Myb L199S, P10242” yielded an abundance fitness of 0.041 ± 0.068. “Transcriptional activator Myb E150V, P10242” showed an abundance fitness of -0.207 ± 0.061. Substance “Transcriptional activator Myb K144R, P10242” has an abundance fitness of -0.078 ± 0.072. For “Transcriptional activator Myb S202N, P10242”, the abundance fitness was -0.237 ± 0.18. With “Transcriptional activator Myb I154G, P10242” the abundance fitness was -0.777 ± 0.057. With “Transcriptional activator Myb K192N, P10242” the abundance fitness was -0.162 ± 0.43. “Transcriptional activator Myb S202E, P10242” gave an abundance fitness of 0.042 ± 0.073. Work on “Transcriptional activator Myb E196Q, P10242” yielded an abundance fitness of -0.032 ± 0.12. In the case of “Transcriptional activator Myb I169Y, P10242”, the abundance fitness is reported as -0.147 ± 0.097. With “Transcriptional activator Myb D152M, P10242” the abundance fitness was -0.381 ± 0.15. Work on “Transcriptional activator Myb D152C, P10242” yielded an abundance fitness of -0.833 ± 0.14. “Transcriptional activator Myb L199K, P10242” gave an abundance fitness of 0.025 ± 0.083. In the case of “Transcriptional activator Myb S203N, P10242”, the abundance fitness is reported as -0.108 ± 0.1. With “Transcriptional activator Myb H184T, P10242” the abundance fitness was -1.07 ± 0.095. For “Transcriptional activator Myb I181S, P10242”, the abundance fitness was -0.694 ± 0.086. “Transcriptional activator Myb N179H, P10242” gave an abundance fitness of -0.04 ± 0.094. “Transcriptional activator Myb K143E, P10242” gave an abundance fitness of -0.144 ± 0.17. For “Transcriptional activator Myb A170C, P10242”, the abundance fitness was -0.137 ± 0.13. “Transcriptional activator Myb E196R, P10242” showed an abundance fitness of -0.092 ± 0.046. “Transcriptional activator Myb Q200Y, P10242” showed an abundance fitness of -0.259 ± 0.12. Substance “Transcriptional activator Myb L199M, P10242” has an abundance fitness of -0.071 ± 0.095. Work on “Transcriptional activator Myb A170Q, P10242” yielded an abundance fitness of -0.056 ± 0.094. For “Transcriptional activator Myb I169P, P10242”, the abundance fitness was -0.734 ± 0.12. With “Transcriptional activator Myb E149T, P10242” the abundance fitness was -0.634 ± 0.43. Substance “Transcriptional activator Myb E168G, P10242” has an abundance fitness of -0.668 ± 0.07. “Transcriptional activator Myb E168R, P10242” gave an abundance fitness of -0.541 ± 0.067. In the case of “Transcriptional activator Myb A180I, P10242”, the abundance fitness is reported as -0.005 ± 0.32. “Transcriptional activator Myb G175V, P10242” gave an abundance fitness of -0.409 ± 0.066. Substance “Transcriptional activator Myb K143V, P10242” has an abundance fitness of -0.13 ± 0.087. With “Transcriptional activator Myb R176F, P10242” the abundance fitness was -0.733 ± 0.25. “Transcriptional activator Myb K143G, P10242” showed an abundance fitness of -0.06 ± 0.059. “Transcriptional activator Myb E150R, P10242” showed an abundance fitness of 0 ± 0.061. Substance “Transcriptional activator Myb N186P, P10242” has an abundance fitness of -0.804 ± 0.14. “Transcriptional activator Myb R191Y, P10242” showed an abundance fitness of -0.423 ± 0.16. For “Transcriptional activator Myb D152S, P10242”, the abundance fitness was -0.287 ± 0.072. “Transcriptional activator Myb W147S, P10242” showed an abundance fitness of -0.63 ± 0.036. “Transcriptional activator Myb I155Q, P10242” showed an abundance fitness of -0.786 ± 0.13. Substance “Transcriptional activator Myb R190T, P10242” has an abundance fitness of -0.131 ± 0.08. “Transcriptional activator Myb H159Y, P10242” gave an abundance fitness of -0.007 ± 0.12. “Transcriptional activator Myb E149S, P10242” showed an abundance fitness of -0.188 ± 0.4. Substance “Transcriptional activator Myb A180G, P10242” has an abundance fitness of -0.244 ± 0.049. In the case of “Transcriptional activator Myb A167N, P10242”, the abundance fitness is reported as -0.058 ± 0.11. For “Transcriptional activator Myb Q200S, P10242”, the abundance fitness was -0.073 ± 0.06. In the case of “Transcriptional activator Myb S146K, P10242”, the abundance fitness is reported as -0.344 ± 0.34. With “Transcriptional activator Myb E151Y, P10242” the abundance fitness was -1.12 ± 0.36. For “Transcriptional activator Myb R176N, P10242”, the abundance fitness was -0.905 ± 0.2. Work on “Transcriptional activator Myb R176I, P10242” yielded an abundance fitness of -0.225 ± 0.16. Substance “Transcriptional activator Myb A167R, P10242” has an abundance fitness of -0.146 ± 0.069. “Transcriptional activator Myb S203H, P10242” gave an abundance fitness of -0.264 ± 0.12. Work on “Transcriptional activator Myb R153P, P10242” yielded an abundance fitness of -1.12 ± 0.18. Substance “Transcriptional activator Myb K144I, P10242” has an abundance fitness of -0.206 ± 0.22. In the case of “Transcriptional activator Myb E196K, P10242”, the abundance fitness is reported as -0.064 ± 0.1. “Transcriptional activator Myb W185C, P10242” gave an abundance fitness of -0.755 ± 0.12. Substance “Transcriptional activator Myb N179E, P10242” has an abundance fitness of 0.016 ± 0.069. Substance “Transcriptional activator Myb R191V, P10242” has an abundance fitness of 0.017 ± 0.094. In the case of “Transcriptional activator Myb G175A, P10242”, the abundance fitness is reported as -0.085 ± 0.058. “Transcriptional activator Myb H184C, P10242” gave an abundance fitness of -0.799 ± 0.084. “Transcriptional activator Myb I155F, P10242” showed an abundance fitness of -0.467 ± 0.14. For “Transcriptional activator Myb Y198P, P10242”, the abundance fitness was 0.016 ± 0.14. For “Transcriptional activator Myb E168H, P10242”, the abundance fitness was -0.548 ± 0.36. “Transcriptional activator Myb Q200R, P10242” showed an abundance fitness of 0.007 ± 0.048. Work on “Transcriptional activator Myb I154Q, P10242” yielded an abundance fitness of -0.216 ± 0.11. Work on “Transcriptional activator Myb P174S, P10242” yielded an abundance fitness of -0.338 ± 0.088. In the case of “Transcriptional activator Myb T148E, P10242”, the abundance fitness is reported as -0.443 ± 0.065. With “Transcriptional activator Myb E194K, P10242” the abundance fitness was -0.067 ± 0.13. “Transcriptional activator Myb A167W, P10242” showed an abundance fitness of -0.27 ± 0.063. Substance “Transcriptional activator Myb G197M, P10242” has an abundance fitness of -0.334 ± 0.12. For “Transcriptional activator Myb E194D, P10242”, the abundance fitness was -0.001 ± 0.16. For “Transcriptional activator Myb E149R, P10242”, the abundance fitness was -0.203 ± 0.12. For “Transcriptional activator Myb A167M, P10242”, the abundance fitness was -0.313 ± 0.15. Substance “Transcriptional activator Myb I154F, P10242” has an abundance fitness of -0.914 ± 0.13. For “Transcriptional activator Myb I169M, P10242”, the abundance fitness was -0.18 ± 0.093. With “Transcriptional activator Myb H184Q, P10242” the abundance fitness was -0.598 ± 0.08. “Transcriptional activator Myb R153L, P10242” gave an abundance fitness of -0.098 ± 0.073. For “Transcriptional activator Myb R190D, P10242”, the abundance fitness was -0.073 ± 0.13. “Transcriptional activator Myb G175C, P10242” gave an abundance fitness of -0.171 ± 0.1. For “Transcriptional activator Myb R176S, P10242”, the abundance fitness was -0.457 ± 0.072. Work on “Transcriptional activator Myb W185D, P10242” yielded an abundance fitness of -0.658 ± 0.17. “Transcriptional activator Myb E201A, P10242” gave an abundance fitness of -0.094 ± 0.076. For “Transcriptional activator Myb K171D, P10242”, the abundance fitness was -0.234 ± 0.14. In the case of “Transcriptional activator Myb I154D, P10242”, the abundance fitness is reported as -0.5 ± 0.12. With “Transcriptional activator Myb K143M, P10242” the abundance fitness was -0.031 ± 0.16. Substance “Transcriptional activator Myb S202D, P10242” has an abundance fitness of -0.069 ± 0.087. For “Transcriptional activator Myb R176T, P10242”, the abundance fitness was -0.223 ± 0.096. Substance “Transcriptional activator Myb L172P, P10242” has an abundance fitness of -0.486 ± 0.19. Substance “Transcriptional activator Myb S203K, P10242” has an abundance fitness of 0.14 ± 0.19. Work on “Transcriptional activator Myb G175H, P10242” yielded an abundance fitness of 0.101 ± 0.17. With “Transcriptional activator Myb L173I, P10242” the abundance fitness was 0.253 ± 0.44. “Transcriptional activator Myb G197R, P10242” gave an abundance fitness of -0.087 ± 0.06. “Transcriptional activator Myb I154H, P10242” gave an abundance fitness of -0.59 ± 0.12. “Transcriptional activator Myb E201C, P10242” gave an abundance fitness of -0.314 ± 0.11. Work on “Transcriptional activator Myb K204W, P10242” yielded an abundance fitness of -0.443 ± 0.11. “Transcriptional activator Myb N179I, P10242” gave an abundance fitness of 0.127 ± 0.14. “Transcriptional activator Myb W185L, P10242” gave an abundance fitness of -0.509 ± 0.067. Substance “Transcriptional activator Myb G175D, P10242” has an abundance fitness of 0.021 ± 0.079. Substance “Transcriptional activator Myb T148R, P10242” has an abundance fitness of -0.307 ± 0.035. Work on “Transcriptional activator Myb S187D, P10242” yielded an abundance fitness of 0.077 ± 0.12. With “Transcriptional activator Myb Y156N, P10242” the abundance fitness was -0.33 ± 0.12. With “Transcriptional activator Myb Y198I, P10242” the abundance fitness was 0.093 ± 0.12. “Transcriptional activator Myb Y198T, P10242” showed an abundance fitness of -0.071 ± 0.1. In the case of “Transcriptional activator Myb A180Q, P10242”, the abundance fitness is reported as -0.002 ± 0.12.
